Experimental data published in US10428140B2, “Anti-EphA4 antibody” (EISAI R&D MANAGEMENT CO., LTD., priority 2015, dated 2019).

T1: human EphA7 (Homo sapiens, UniProt Q15375)
T1 construct: a protein of the extracellular region of each human Eph receptor fused with the SEAP protein and the His tag; made in house; host or cells: Expi293F cells (culture supernatant)
T1 sequence (Q15375 28-555 limits assumed): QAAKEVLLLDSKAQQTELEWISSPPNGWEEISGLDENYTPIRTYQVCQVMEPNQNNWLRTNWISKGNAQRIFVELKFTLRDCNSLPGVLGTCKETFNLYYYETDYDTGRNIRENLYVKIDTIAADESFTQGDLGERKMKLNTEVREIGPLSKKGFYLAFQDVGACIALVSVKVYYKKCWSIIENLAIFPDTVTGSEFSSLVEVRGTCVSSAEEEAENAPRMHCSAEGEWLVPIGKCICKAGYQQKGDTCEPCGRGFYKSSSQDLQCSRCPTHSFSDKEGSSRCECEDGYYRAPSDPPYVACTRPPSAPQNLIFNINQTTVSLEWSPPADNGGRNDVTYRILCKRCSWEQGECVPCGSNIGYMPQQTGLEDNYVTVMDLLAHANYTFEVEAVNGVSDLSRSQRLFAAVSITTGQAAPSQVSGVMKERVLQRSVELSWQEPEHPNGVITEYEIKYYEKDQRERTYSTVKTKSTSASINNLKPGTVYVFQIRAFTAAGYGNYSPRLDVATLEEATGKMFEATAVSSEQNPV

T2: human EphB2 (Homo sapiens, UniProt P29323)
T2 construct: a protein of the extracellular region of each human Eph receptor fused with the SEAP protein and the His tag; made in house; host or cells: Expi293F cells
T2 sequence (P29323 19-543 limits assumed): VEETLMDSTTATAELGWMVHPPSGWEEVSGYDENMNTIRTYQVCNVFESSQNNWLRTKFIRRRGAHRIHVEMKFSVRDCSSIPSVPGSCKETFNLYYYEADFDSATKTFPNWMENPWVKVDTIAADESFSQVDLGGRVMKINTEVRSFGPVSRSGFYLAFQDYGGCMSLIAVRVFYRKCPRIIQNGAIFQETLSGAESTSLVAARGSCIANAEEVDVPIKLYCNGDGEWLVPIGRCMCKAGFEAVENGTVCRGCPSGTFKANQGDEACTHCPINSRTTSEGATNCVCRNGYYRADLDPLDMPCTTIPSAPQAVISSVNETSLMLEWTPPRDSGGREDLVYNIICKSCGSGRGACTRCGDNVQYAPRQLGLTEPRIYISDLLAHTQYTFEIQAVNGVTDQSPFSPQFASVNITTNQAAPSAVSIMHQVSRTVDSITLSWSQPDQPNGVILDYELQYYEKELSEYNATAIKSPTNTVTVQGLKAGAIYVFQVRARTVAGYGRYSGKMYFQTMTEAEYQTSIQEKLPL


Columns and labels:
Test in all cases: Selectivity ELISA of humanized antibodies for human Eph receptor
Type in all cases: binding
human EphA4 = biological target: T3, human EphA4 (Homo sapiens, UniProt P54764); conditions: coated protein 1 nM; reference set to 100%
T3 construct: made in house; not restated for the human SEAP-His protein
T3 sequence (P54764 20-547): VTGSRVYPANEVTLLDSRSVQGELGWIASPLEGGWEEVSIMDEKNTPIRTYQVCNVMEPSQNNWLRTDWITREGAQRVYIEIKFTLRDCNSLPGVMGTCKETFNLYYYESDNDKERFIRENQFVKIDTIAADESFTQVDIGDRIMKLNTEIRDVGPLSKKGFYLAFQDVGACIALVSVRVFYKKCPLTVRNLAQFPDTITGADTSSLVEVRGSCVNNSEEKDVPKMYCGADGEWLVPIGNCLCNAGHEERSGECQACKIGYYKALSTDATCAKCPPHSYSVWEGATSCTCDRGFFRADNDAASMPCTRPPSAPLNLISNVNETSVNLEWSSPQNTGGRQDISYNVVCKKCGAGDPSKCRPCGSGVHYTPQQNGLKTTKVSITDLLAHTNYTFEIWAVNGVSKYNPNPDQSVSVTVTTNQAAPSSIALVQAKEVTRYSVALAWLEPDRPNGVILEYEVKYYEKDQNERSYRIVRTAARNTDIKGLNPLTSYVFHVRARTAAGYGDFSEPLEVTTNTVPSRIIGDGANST
Method in brief: (§1)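 Read-out is A450 after TMB development stopped with 1N H2SO4. Plates bore anti-His-captured human Eph extracellular region-SEAP-His proteins at 1 nM final, made in Expi293F cells. Humanized antibody binding ran 1 h at room temperature before HRP-labeled anti-IgG detection.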

human EphA7 = biological target: T1, human EphA7; conditions: coated protein 1 nM
Method in brief: as §1

human EphB2 = biological target: T2, human EphB2; conditions: coated protein 1 nM
Method in brief: as §1

human EphA5 = biological target: T4, human EphA5 (Homo sapiens, UniProt P54756); conditions: coated protein 1 nM
T4 construct: a protein of the extracellular region of each human Eph receptor fused with the SEAP protein and the His tag; made in house; host or cells: Expi293F cells (culture supernatant)
T4 sequence (P54756 25-573 limits assumed): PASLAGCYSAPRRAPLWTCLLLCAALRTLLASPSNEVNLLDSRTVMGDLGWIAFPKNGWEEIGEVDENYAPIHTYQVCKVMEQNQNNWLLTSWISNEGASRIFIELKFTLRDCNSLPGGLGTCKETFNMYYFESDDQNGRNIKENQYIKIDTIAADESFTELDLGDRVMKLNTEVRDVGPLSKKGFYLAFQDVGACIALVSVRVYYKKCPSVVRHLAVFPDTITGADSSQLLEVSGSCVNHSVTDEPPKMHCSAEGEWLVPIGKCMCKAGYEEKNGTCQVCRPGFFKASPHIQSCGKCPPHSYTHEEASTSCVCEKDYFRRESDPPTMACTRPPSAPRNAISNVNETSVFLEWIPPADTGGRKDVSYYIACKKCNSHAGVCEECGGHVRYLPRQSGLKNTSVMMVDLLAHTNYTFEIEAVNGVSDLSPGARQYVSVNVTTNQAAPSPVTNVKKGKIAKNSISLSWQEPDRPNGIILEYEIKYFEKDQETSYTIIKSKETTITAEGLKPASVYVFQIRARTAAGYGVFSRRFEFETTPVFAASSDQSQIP
Method in brief: as §1

Row | Molecule | hEphA4-SEAP-: absorbance at 450 nm, percentage with respect to hEphA4-SEAP-His as 100% (human EphA4) | hEphA7-SEAP-: absorbance at 450 nm, percentage with respect to hEphA4-SEAP-His as 100% (human EphA7) | hEphB2-SEAP-: absorbance at 450 nm, percentage with respect to hEphA4-SEAP-His as 100% (human EphB2) | hEphA5-SEAP-: absorbance at 450 nm, percentage with respect to hEphA4-SEAP-His as 100% (human EphA5)
1 | 153 (antibody, V domains shown, synthetic humanized antibody heavy chain variable region sequence; synthetic humanized antibody light chain variable region sequence) VH: QVQLVQSGSELKKPGASVKVSCKASGYTFTDYSMHWVRQAPGQGLKWMGWINTETGEPTYAQGFTGRFVFSLDTSVSTAYLQISSLKAEDTAVYYCARIPLYYYGSRYWYFDVWGQGTTVTVSS VL: DIQMTQSPSSLSASVGDRVTITCRASENIYRNLAWYQQKPGKAPKLLLYAATNLADGVPSRFSGSGSGTDYTLTISSLQSEDFATYYCQHFWGTPWTFGQGTKVEIK | 100% | 6.2% | 5.9% | 6.1%
2 | 154 (antibody, V domains shown, synthetic humanized antibody heavy chain variable region sequence; synthetic humanized antibody light chain variable region sequence) VH: QVQLVQSGSELKKPGASVKVSCKASGYTFTDYSMHWVRQAPGQGLEWMGWINTETGEPTYADDFKGRFVFSLDTSVSTAYLQISSLKAEDTAVYYCARIPLYYYGSRYWYFDVWGQGTTVTVSS VL: DIQMTQSPSSLSASVGDRVTITCRASENIYRNLAWYQQKPGKAPKLLLYAATNLADGVPSRFSGSGSGTDYTLTISSLQSEDFATYYCQHFWGTPWTFGQGTKVEIK | 100% | 6.3% | 6.2% | 6.3%
3 | 144 (antibody, V domains shown, synthetic humanized antibody heavy chain variable region sequence; synthetic humanized antibody light chain variable region sequence) VH: QVQLVQSGSELKKPGASVKVSCKASGYTFTDYSMHWVRQAPGQGLEWMGWINTETGEPTYADDFKGRFVFSLDTSVSTAYLQISSLKAEDTAVYYCARIPLYYYGSRYWYFDVWGQGTTVTVSS VL: DIQMTQSPSSLSASVGDRVTITCRASENIYRNLAWYQQKPGKAPQLLLYAATNLADGVPSRFSGSGSGTDYTLTISSLQPEDFATYYCQHFWGTPWTFGQGTKVEIK | 100% | 5.6% | 5.7% | 5.6%
4 | 151 (antibody, V domains shown, synthetic humanized antibody heavy chain variable region sequence; synthetic humanized antibody light chain variable region sequence) VH: QIQLVQSGSELKKPGASVKVSCKASGYTFTDYSMHWVRQAPGQGLKWMGWINTETGEPTYAQGFTGRFVFSLDTSVSTAYLQISSLKAEDTAVYYCARIPLYYYGSRYWYFDVWGQGTTVTVSS VL: DIQMTQSPSSLSASVGDRVTITCRASENIYRNLAWYQQKPGKAPKLLLYAATNLADGVPSRFSGSGSGTDYTLTISSLQSEDFATYYCQHFWGTPWTFGQGTKVEIK | 100% | 6.8% | 7.0% | 7.0%
5 | 157 (antibody, V domains shown, synthetic humanized antibody heavy chain variable region sequence; synthetic humanized antibody light chain variable region sequence) VH: QVQLVQSGSELKKPGASVKVSCKASGYTFTDYSMHWVRQAPGQGLEWMGWINTETGEPTYAQGFTGRFVFSLDTSVSTAYLQISSLKAEDTAVYYCARIPLYYYGSRYWYFDVWGQGTTVTVSS VL: DIQMTQSPSSLSASVGDRVTITCRASENIYRNLAWYQQKPGKAPQLLLYAATNLADGVPSRFSGSGSGTDYTLTISSLQPEDFATYYCQHFWGTPWTFGQGTKVEIK | 100% | 6.0% | 6.2% | 6.1%
6 | 155 (antibody, V domains shown, synthetic humanized antibody heavy chain variable region sequence; synthetic humanized antibody light chain variable region sequence) VH: QIQLVQSGSELKKPGASVKVSCKASGYTFTDYSMHWVRQAPGQGLKWMGWINTETGEPTYADDFKGRFVFSLDTSVSTAYLQISSLKAEDTAVYYCARIPLYYYGSRYWYFDVWGQGTTVTVSS VL: DIQMTQSPSSLSASVGDRVTITCRASENIYRNLAWYQQKPGKAPKLLLYAATNLADGVPSRFSGSGSGTDYTLTISSLQSEDFATYYCQHFWGTPWTFGQGTKVEIK | 100% | 5.6% | 5.5% | 5.6%
7 | 145 (antibody, V domains shown, synthetic humanized antibody heavy chain variable region sequence; synthetic humanized antibody light chain variable region sequence) VH: QVQLVQSGSELKKPGASVKVSCKASGYTFTDYSMHWVRQAPGQGLKWMGWINTETGEPTYADDFKGRFVFSLDTSVSTAYLQISSLKAEDTAVYYCARIPLYYYGSRYWYFDVWGQGTTVTVSS VL: DIQMTQSPSSLSASVGDRVTITCRASENIYRNLAWYQQKPGKAPKLLLYAATNLADGVPSRFSGSGSGTDYTLTISSLQSEDFATYYCQHFWGTPWTFGQGTKVEIK | 100% | 6.3% | 6.7% | 6.6%
8 | 158 (antibody, V domains shown, synthetic humanized antibody heavy chain variable region sequence; synthetic humanized antibody light chain variable region sequence) VH: QVQLVQSGSELKKPGASVKVSCKASGYTFTDYSMHWVRQAPGQGLKWMGWINTETGEPTYAQGFTGRFVFSLDTSVSTAYLQISSLKAEDTAVYYCARIPLYYYGSRYWYFDVWGQGTTVTVSS VL: DIQMTQSPSSLSASVGDRVTITCRASENIYRNLAWYQQKPGKAPQLLLYAATNLADGVPSRFSGSGSGTDYTLTISSLQPEDFATYYCQHFWGTPWTFGQGTKVEIK | 100% | 6.3% | 6.3% | 6.7%
